Measured values reported in paper PMC8131606.

Legend:
[1] = biological target: F1 (F228A) opsin (bovine) (UniProt P02699)
[2] = biological target: F2 (F221A, F228A) opsin (bovine) (UniProt P02699)
[3] = biological target: F3 (F220C, F221A, F228A) opsin (bovine) (UniProt P02699)
[4] = biological target: WT opsin (thermostable bovine opsin with C-terminal 3X-FLAG tag) (bovine) (UniProt P02699)

F1 (F228A) opsin (from UniProt P02699 1-348) (receptor)
ratio of mono-exponential fit constants α(construct)/αWT from scramblase-based analysis of reconstitution into vesicles [1]: 1

F2 (F221A, F228A) opsin (from UniProt P02699 1-348) (receptor)
ratio of mono-exponential fit constants α(construct)/αWT from scramblase-based analysis of reconstitution into vesicles [2]: 1

F3 (F220C, F221A, F228A) opsin (from UniProt P02699 1-348) (receptor)
ratio of mono-exponential fit constants αF3/αWT from scramblase-based analysis of reconstitution into vesicles [3]: 0.4

WT opsin (thermostable bovine opsin with C-terminal 3X-FLAG tag) (from UniProt P02699 1-348) (receptor)
mono-exponential fit constant (α) of p(≥ 1) scramblase versus PPR* after reconstitution of purified opsin into vesicles [4]: 0.25
